In one series the target is T1, dUnr CSD123 (Drosophila melanogaster, UniProt B7Z0E2 186-414).
T1 sequence: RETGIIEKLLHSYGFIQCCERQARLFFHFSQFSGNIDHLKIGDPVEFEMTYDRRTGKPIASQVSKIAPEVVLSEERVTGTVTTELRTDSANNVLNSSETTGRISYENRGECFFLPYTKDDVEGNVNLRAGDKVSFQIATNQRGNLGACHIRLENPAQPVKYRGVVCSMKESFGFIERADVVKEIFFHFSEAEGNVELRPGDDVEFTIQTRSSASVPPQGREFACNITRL
The experiment in a line: EMSA; EMSA: 20 mM HEPES/NaOH pH 7.5, 50 mM NaCl, 10% glycerol, 2 mM DTT, 1 h at 4 C, ~25 nM RNA; NMR: 20 mM NaP pH 6.5, 50 mM NaCl, 1 mM DTT (10 mM for CSD12), 10% D2O, 298 K. The following applies: protein: recombinant; tags: tag cleaved with TEV; label: 3' pCp-Cy5; stem loops.

A further series has as its target T2, Unr full-length (dUnr) (Drosophila melanogaster, UniProt B7Z0E2 1-1039).
T2 sequence: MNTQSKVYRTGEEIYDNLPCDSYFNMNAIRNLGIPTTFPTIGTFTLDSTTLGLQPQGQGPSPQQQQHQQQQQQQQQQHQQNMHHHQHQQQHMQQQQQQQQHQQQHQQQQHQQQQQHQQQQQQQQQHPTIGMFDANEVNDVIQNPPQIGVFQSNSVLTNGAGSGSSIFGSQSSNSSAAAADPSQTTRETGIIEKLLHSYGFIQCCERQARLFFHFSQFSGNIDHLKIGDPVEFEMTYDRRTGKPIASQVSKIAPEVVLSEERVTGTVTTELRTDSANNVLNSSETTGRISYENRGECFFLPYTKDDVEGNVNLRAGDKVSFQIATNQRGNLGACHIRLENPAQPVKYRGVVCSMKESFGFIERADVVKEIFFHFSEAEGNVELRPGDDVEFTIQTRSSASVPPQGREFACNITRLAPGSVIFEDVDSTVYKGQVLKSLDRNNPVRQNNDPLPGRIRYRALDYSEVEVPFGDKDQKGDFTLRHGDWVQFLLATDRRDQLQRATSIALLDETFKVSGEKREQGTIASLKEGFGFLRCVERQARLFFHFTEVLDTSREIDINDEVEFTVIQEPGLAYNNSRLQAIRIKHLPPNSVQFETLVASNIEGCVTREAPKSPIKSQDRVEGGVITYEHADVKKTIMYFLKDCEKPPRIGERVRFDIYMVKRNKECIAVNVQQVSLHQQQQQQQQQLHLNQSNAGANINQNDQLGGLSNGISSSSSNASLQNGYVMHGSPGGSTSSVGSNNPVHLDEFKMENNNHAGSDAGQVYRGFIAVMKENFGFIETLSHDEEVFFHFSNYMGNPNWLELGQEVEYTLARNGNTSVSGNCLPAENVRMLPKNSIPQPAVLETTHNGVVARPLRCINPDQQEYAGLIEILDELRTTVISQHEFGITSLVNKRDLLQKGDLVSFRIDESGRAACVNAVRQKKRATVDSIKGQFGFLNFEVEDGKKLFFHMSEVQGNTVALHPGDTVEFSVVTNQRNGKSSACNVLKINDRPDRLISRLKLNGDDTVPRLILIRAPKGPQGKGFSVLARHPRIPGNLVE
The description is as above. Particulars: protein: recombinant; tags: His6; label: 3' pCp-Cy5; stem loops.

For series [1], the target named is T3, dUnr CSD789 (Drosophila melanogaster, UniProt B7Z0E2 756-990).
T3 sequence: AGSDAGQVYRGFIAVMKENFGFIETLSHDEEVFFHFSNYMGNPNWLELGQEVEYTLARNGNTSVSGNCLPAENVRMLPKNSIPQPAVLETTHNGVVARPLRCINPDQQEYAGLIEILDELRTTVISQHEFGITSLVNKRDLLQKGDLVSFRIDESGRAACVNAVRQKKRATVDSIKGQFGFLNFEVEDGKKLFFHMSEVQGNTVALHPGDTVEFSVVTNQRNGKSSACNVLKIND
Described as above. The following applies: protein: recombinant; tags: tag cleaved with TEV; label: 3' pCp-Cy5; stem loops.

In another series the target is T4, dUnr CSD456 (Drosophila melanogaster, UniProt B7Z0E2 424-677).
T4 sequence: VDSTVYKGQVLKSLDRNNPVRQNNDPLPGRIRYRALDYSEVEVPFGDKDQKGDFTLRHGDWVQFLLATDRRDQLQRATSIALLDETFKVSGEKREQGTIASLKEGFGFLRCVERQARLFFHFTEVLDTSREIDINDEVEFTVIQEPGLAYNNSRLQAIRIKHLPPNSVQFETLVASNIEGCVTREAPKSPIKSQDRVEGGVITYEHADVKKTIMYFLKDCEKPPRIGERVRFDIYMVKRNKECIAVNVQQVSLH
The description is as above. The following applies: protein: recombinant; tags: tag cleaved with TEV; label: 3' pCp-Cy5; stem loops.

The target of the next series is T5, dUnr CSD78 (Drosophila melanogaster, UniProt B7Z0E2 756-922).
T5 sequence: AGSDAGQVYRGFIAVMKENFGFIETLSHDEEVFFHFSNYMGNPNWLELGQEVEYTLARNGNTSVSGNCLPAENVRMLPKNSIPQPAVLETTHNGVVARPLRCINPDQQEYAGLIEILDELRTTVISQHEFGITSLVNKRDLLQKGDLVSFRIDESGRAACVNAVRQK
The series is described as follows: NMR titration; joint range given for CSD78 and CSD9; EMSA: 20 mM HEPES/NaOH pH 7.5, 50 mM NaCl, 10% glycerol, 2 mM DTT, 1 h at 4 C, ~25 nM RNA; NMR: 20 mM NaP pH 6.5, 50 mM NaCl, 1 mM DTT (10 mM for CSD12), 10% D2O, 298 K. Particulars: protein: recombinant; tags: tag cleaved with TEV. (Mobility shift assays separate free from complexed probe on a gel.)

The next series deals with T6, dUnr CSD9 (Drosophila melanogaster, UniProt B7Z0E2 898-990).
T6 sequence: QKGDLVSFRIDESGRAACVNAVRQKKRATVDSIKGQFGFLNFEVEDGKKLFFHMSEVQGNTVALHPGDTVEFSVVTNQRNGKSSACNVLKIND
The series is described as above. The following applies: protein: recombinant; tags: tag cleaved with TEV.

A further series concerns the target T7, dUnr ncCSD8 (Drosophila melanogaster, UniProt B7Z0E2 841-922).
T7 sequence: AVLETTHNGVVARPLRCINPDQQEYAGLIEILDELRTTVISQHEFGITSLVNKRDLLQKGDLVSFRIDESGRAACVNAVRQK
The series is described as follows: NMR titration; no CSPs; EMSA: 20 mM HEPES/NaOH pH 7.5, 50 mM NaCl, 10% glycerol, 2 mM DTT, 1 h at 4 C, ~25 nM RNA; NMR: 20 mM NaP pH 6.5, 50 mM NaCl, 1 mM DTT (10 mM for CSD12), 10% D2O, 298 K. The following applies: protein: recombinant; tags: tag cleaved with TEV.

Another series deals with T8, dUnr ncCSD6 (Drosophila melanogaster, UniProt B7Z0E2 593-677).
T8 sequence: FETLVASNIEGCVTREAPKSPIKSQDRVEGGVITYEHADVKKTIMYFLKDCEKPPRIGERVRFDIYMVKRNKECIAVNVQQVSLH
Described as above. Particulars: protein: recombinant; tags: tag cleaved with TEV.

For series [2], the target named is T3, dUnr CSD789. The series is described as follows: NMR titration; deuterated protein; CSPs in all three domains, intermediate-to-slow exchange; EMSA: 20 mM HEPES/NaOH pH 7.5, 50 mM NaCl, 10% glycerol, 2 mM DTT, 1 h at 4 C, ~25 nM RNA; NMR: 20 mM NaP pH 6.5, 50 mM NaCl, 1 mM DTT (10 mM for CSD12), 10% D2O, 298 K. Particulars: protein: recombinant; tags: tag cleaved with TEV.

B1: SL67 (roX2 lncRNA stem loops 6 and 7) (structured_RNA)
RNA: ACAAUAUGCAAUACAAUACAAUACAAGACAAAAAAAUGUGUCUUGGAACCAACAUUGUACAAGUCGCAAUGCAAACUGAAGUCUUAAAAGACGUGUAAAAUGUUGCAAAUUAAGCAAAUAUAUAUGCAUAUAUGGGUAACGUUUUACGCGCCUUAACCAGU
As a reminder, the Kd is the free concentration of one partner at which half of the binding sites on the other are occupied at equilibrium, for simple one-to-one binding. On to B1, for which the Kd with dUnr CSD123 was determined as 1.41 µM; with Unr full-length (dUnr), 0.707 µM; in the series with dUnr CSD789 [1], 32 µM; with dUnr CSD456, 16 µM.
AAAAAAAUG (ssRNA) [9-mer RNA from roX2 SL6 loop]: the Kd with dUnr CSD78 and with dUnr CSD9 was about 245 µM each time. The binding result with dUnr ncCSD8 and with dUnr ncCSD6 was “no binding” in each case.
Turning to AAAAAAAAAAAAAAA (ssRNA) [A15-mer RNA], in the series with dUnr CSD789 [2], the binding result was “binds”.
